Key:
[1] = system: Arabidopsis thaliana T1 plants; test: Topramezone tolerance of transgenic Arabidopsis thaliana T1 plants (pesticide damage grade by bleached leaf area, score, resistance evaluation); type: in vivo; conditions: mutation combination, Table 8
Outline: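 Eighteen days after sowing, wild-type and HPPD-transgenic T1 Arabidopsis receive a topramezone spray at 1×, 2× or 4× field rate (25–100 g ai/ha) or water. Seven days later each plant is graded by its proportion of bleached leaf area.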

[2] = system: soybean T1 plants; test: Tolerance of transgenic soybean T1 plants to mesotrione; type: in vivo; conditions: mesotrione 210 and 420 g ai/ha, 7 DAT, compared to control vector and wild-type
From the text: The Arabidopsisthaliana T1 plants into which the AsHPPDm-F372A-02 nucleotide sequence was introduced, Arabidopsis thaliana T1 plants into which the AsHPPD-02 nucleotide sequence was introduced and wild-type Arabidopsisthaliana plants (18 days after sowing) were sprayed with topramezone at four different concentrations, i.e., 25 g ai/ha (one-fold field concentration, 1×), 50 g ai/ha (two-fold field concentration, 2×), 100 g ai/ha (four-fold field concentration, 4×) and 0 g ai/ha (water, 0×) to determine the tolerance of Arabidopsisthaliana to the herbicide. The degree of damage caused by the herbicide was measured for each plant according to the proportion of bleached leaf area (the proportion of bleached leaf area=bleached leaf area/total leaf area×100%) 7 days after spraying (7 DAT): the case where there is basically no bleached phenotype is defined as grade 0, the case where the proportion of bleached leaf area is less than 50% is defined as grade 1,the case where the proportion of bleached leaf area is more than 50% is defined as grade 2, and the case where the proportion of bleached leaf area is 100% grade is defined as grade 3.
In order to further verify the tolerance effect of HPPD (F372A) on other HPPD inhibitors, the soybean T1 plants into which the AsHPPDm-F372A-02 nucleotide sequence was introduced, soybean T1 plants into which the ZmHPPDm-F372A-02 nucleotide sequence was introduced, soybean T1 plants into which the PfHPPDm-F372A-02 nucleotide sequence was introduced, soybean T1 plants into which the AsHPPDm-F372A-A110 nucleotide sequence was introduced, soybean T1 plants into which the control vector DBN11375NN was introduced in Example 8, and the wild-type soybean plants (V3-V4 at seedling stage) were sprayed as follows to detect the herbicide tolerance of each soybean plants, (1) 140 g ai/ha (2-fold field concentration, 2 ×) isoxaflutole; (2) 280 g ai/ha (4-fold field concentration, 4 ×) isoxaflutole; (3) 210 g ai/ha (2-fold field concentration, 2 ×) mesotrione; (4) 420 g ai/ha (4-fold field concentration, 4 ×) mesotrione. According to the method in point 6 of Example 1, after 7 days of spraying (7 DAT), the damage degree of each plant by the herbicide was statistically analyzed, and the scoring and resistance evaluation were carried out accordingly. […]

B1: AsHPPDm-F372A-A110: Avena sativa HPPD with F372A and deletion of alanine at position 110, SEQ ID NO: 412 (protein)
chain: MPPTPATATGAAAAAVTPEHAARSFPRVVRVNPRSDRFPVLSFHHVELWCADAASAAGRFSFALGAPLAARSDLSTGNSAHASLLLRSGALAFLFTAPYAPPPQEAATAATASIPSFSADAARTFAAAHGLAVRSVGVRVADAAEAFRVSVAGGARPAFAPADLGHGFGLAEVELYGDVVLRFVSYPDETDLPFLPGFERVSSPGAVDYGLTRFDHVVGNVPEMAPVIDYMKGFLGFHEFAEFTAEDVGTTESGLNSVVLANNSEAVLLPLNEPVHGTKRRSQIQTYLEYHGGPGVQHIALASNDVLRTLREMRARTPMGGFEFMAPPQAKYYEGVRRIAGDVLSEEQIKECQELGVLVDRDDQGVLLQIATKPVGDRPTFFLEMIQRIGCMEKDEVGQEYQKGGCGGFGKGNFSELFKSIEDYEKSLEVKQSVVAQKS
modifications: AsHPPDm-F372A-A110 Amino Acid Sequence
Grade 0 (number of plants) ([1]; topramezone 25 g ai/ha): 20 | Grade 1 (number of plants) ([1]; topramezone 25 g ai/ha): 0 | Grade 2 (number of plants) ([1]; topramezone 25 g ai/ha): 0 | Grade 3 (number of plants) ([1]; topramezone 25 g ai/ha): 0 | Resistance Grade ([1]; topramezone 25 g ai/ha): Highly resistant | score ([1]; topramezone 25 g ai/ha): 0 | Grade 0 (number of plants) ([1]; topramezone 100 g ai/ha): 20 | Grade 1 (number of plants) ([1]; topramezone 100 g ai/ha): 0 | Grade 2 (number of plants) ([1]; topramezone 100 g ai/ha): 0 | Grade 3 (number of plants) ([1]; topramezone 100 g ai/ha): 0 | Resistance Grade ([1]; topramezone 100 g ai/ha): Highly resistant | score ([1]; topramezone 100 g ai/ha): 0 | tolerance to mesotrione, in words [2]: different degrees of tolerance

From patent publication US20230212587A1, “Mutant Hydroxyphenylpyruvate Dioxygenase Polypeptide, Encoding Gene Thereof and Use Therefor” (Beijing Dabeinong Biotechnology Co., Ltd., priority 2019, published 2023)
